# Measured values from patent US20200148741A1.
# T1: recombinant toxic shock syndrome toxin-1 (TSST-1), mature protein with N-terminal His6-tag (Staphylococcus aureus), P06886
# T1 chain: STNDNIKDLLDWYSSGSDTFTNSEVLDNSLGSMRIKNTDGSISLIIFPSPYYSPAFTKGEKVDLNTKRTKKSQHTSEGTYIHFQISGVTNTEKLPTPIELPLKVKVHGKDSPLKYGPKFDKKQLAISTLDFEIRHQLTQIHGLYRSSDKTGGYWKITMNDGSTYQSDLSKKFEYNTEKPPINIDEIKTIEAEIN
# T2: recombinant staphylococcal enterotoxin B (SEB), mature protein with N-terminal His6-tag (Staphylococcus aureus COL), P01552
# T2 chain: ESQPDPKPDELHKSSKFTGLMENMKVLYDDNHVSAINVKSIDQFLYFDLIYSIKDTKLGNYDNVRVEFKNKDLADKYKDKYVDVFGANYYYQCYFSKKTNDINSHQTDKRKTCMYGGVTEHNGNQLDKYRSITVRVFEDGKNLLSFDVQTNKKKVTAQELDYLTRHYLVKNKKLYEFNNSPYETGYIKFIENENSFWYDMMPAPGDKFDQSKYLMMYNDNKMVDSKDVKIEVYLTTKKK
# Tests used:
# [1] = molecular target: T1, recombinant toxic shock syndrome …
# [2] = molecular target: T2, recombinant staphylococcal enterotoxin …
binder,measurement,setting,value
"DSDSWTLR (modifications not checked) [pB2-6, immobilized for Surface Plasmon Resonance]",Kd,[1],1200 nM
same,koff,[1],0.00304 s⁻¹
same,kon,[1],2530 M⁻¹ s⁻¹
same,Kd,[2],3.9 µM
same,koff,[2],0.0019 s⁻¹
same,kon,[2],491 M⁻¹ s⁻¹
